Binding result and Kd data for five molecules are collected here from article PMC12501005.

Series [1] has as its target T1, AflR-DBD (15-79) (Aspergillus flavus, UniProt P41765 15-79).
T1 sequence: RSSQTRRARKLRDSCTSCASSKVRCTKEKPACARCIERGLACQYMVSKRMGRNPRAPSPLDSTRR
As to the kind of experiment: EMSA.

In another series the target is T2, AflR 26-79 (Aspergillus flavus, UniProt P41765 26-79).
T2 sequence: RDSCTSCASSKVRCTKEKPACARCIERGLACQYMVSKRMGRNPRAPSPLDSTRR
As to the kind of experiment: FCS.

A further series concerns the target T3, AflR 15-69 (Aspergillus flavus, UniProt P41765 15-69).
T3 sequence: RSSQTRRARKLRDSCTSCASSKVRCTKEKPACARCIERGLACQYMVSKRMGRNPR
As to the kind of experiment: FCS.

Series [2] deals with T1, AflR-DBD (15-79). As to the kind of experiment: FCS.
For the next series, the target named is T4, AflR 8-98 (Aspergillus flavus, UniProt P41765 8-98).
T4 sequence: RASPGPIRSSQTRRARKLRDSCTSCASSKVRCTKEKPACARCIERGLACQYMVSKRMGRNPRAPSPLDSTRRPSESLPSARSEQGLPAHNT
As to the kind of experiment: FCS.

The target of the next series is T5, AflR 15-57 (Aspergillus flavus, UniProt P41765 15-57).
T5 chain: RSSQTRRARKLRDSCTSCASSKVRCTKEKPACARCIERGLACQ
As to the kind of experiment: EMSA.

A further series deals with T6, AflR 28-57 (Aspergillus flavus, UniProt P41765 28-57).
T6 chain: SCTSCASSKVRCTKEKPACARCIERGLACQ
As to the kind of experiment: EMSA.

B1: norA inverted repeat (GCG to CCG) (dsDNA)
DNA 1: ACCGGGCTTTCGGAAACCGATCAGCTTGT
DNA 2: ACAAGCTGATCGGTTTCCGAAAGCCCGGT
Consider B1, for which, in the series with AflR-DBD (15-79) [1], the binding result is given as “binds”.

B2: ver1 (dsDNA)
DNA 1: TCAGATATTTCGGTCTCCGAGGAAAGAT
DNA 2: ATCTTTCCTCGGAGACCGAAATATCTGA
Consider B2, for which the Kd with AflR 26-79 is 4.02 ± 0.594 µM; in the series with AflR 15-69, 1510 ± 250 nM; with AflR-DBD (15-79) [2] it was 401 ± 54.5 nM; in the series with AflR 8-98, 409 ± 137 nM. The binding result with AflR 15-57 and in the series with AflR 28-57 was “no binding” in each case.

B3: vbs inverted repeat (GCG to CCG) (dsDNA)
DNA 1: ACCGACTCTCGGACACCGAGGCAGACCG
DNA 2: CGGTCTGCCTCGGTGTCCGAGAGTCGGT
In the case of B3, in the series with AflR-DBD (15-79) [1], the binding result is on record as “binds”.

B4: vbs (dsDNA)
DNA 1: ACCGACTCTCGGACAGCGAGGCAGACCG
DNA 2: CGGTCTGCCTCGCTGTCCGAGAGTCGGT
As to B4, the binding result with AflR 15-57 and with AflR 28-57 was “no binding” each time.

B5: norA (dsDNA)
DNA 1: ACCGGGCTTTCGGAAAGCGATCAGCTTGT
DNA 2: ACAAGCTGATCGCTTTCCGAAAGCCCGGT
Regarding B5, the binding result in the series with AflR 15-57 and with AflR 28-57 was “no binding” in each case.
